Laboratory results as given in IntAct's records for PubMed 17012248.

B1: Sialic acid-binding Ig-like lectin 14 (Homo sapiens), Q08ET2 (parent)
chain: MLPLLLLPLLWGGSLQEKPVYELQVQKSVTVQEGLCVLVPCSFSYPWRSWYSSPPLYVYWFRDGEIPYYAEVVATNNPDRRVKPETQGRFRLLGDVQKKNCSLSIGDARMEDTGSYFFRVERGRDVKYSYQQNKLNLEVTALIEKPDIHFLEPLESGRPTRLSCSLPGSCEAGPPLTFSWTGNALSPLDPETTRSSELTLTPRPEDHGTNLTCQVKRQGAQVTTERTVQLNVSYAPQNLAISIFFRNGTGTALRILSNGMSVPIQEGQSLFLACTVDSNPPASLSWFREGKALNPSQTSMSGTLELPNIGAREGGEFTCRVQHPLGSQHLSFILSVQRSSSSCICVTEKQQGSWPLVLTLIRGALMGAGFLLTYGLTWIYYTRCGGPQQSRAERPG

Variants of: B1
Settings: with tyobp_human TYROBP

Variant	effect of a mutation on the interaction
MLPLLLLPLLWGGSLQEKPVYELQVQKSVTVQEGLCVLVPCSFSYPWRSWYSSPPLYVYWFRDGEIPYYAEVVATNNPDRRVKPETQGRFRLLGDVQKKNCSLSIGDARMEDTGSYFFRVERGRDVKYSYQQNKLNLEVTALIEKPDIHFLEPLESGRPTRLSCSLPGSCEAGPPLTFSWTGNALSPLDPETTRSSELTLTPRPEDHGTNLTCQVKRQGAQVTTERTVQLNVSYAPQNLAISIFFRNGTGTALRILSNGMSVPIQEGQSLFLACTVDSNPPASLSWFREGKALNPSQTSMSGTLELPNIGAREGGEFTCRVQHPLGSQHLSFILSVQRSSSSCICVTEKQQGSWPLVLTLIAGALMGAGFLLTYGLTWIYYTRCGGPQQSRAERPG [R362A]	decreasing interaction
